Measured values as given in patent US20240317834A1, “COMPOSITIONS AND METHODS FOR NEUROLOGICAL DISEASES” (CODA BIOTHERAPEUTICS, INC., priority 2020, published 2024).

Legend:
HEK293T cells = assay: High throughput electrophysiology (IonFlux automated patch clamp), EC50 of engineered receptors to ligands; assay type: cell-based
Experimental: To confirm the EC50s determined by plate reader as well as develop a better understanding of maximum current flow, the engineered receptors were subjected to high throughput electrophysiology system, as described below. For HEK293T studies, cDNAs encoding ion channels were cloned into pcDNA3.1 using standard recombination techniques. HEK293T cells from Clontech (Lenti-X™ 293T Cell Line) were cultured in DMEM supplemented with 10% FBS and 1% Pen/Strep to 40-50% confluence using standard cell culture protocols, transfected with ion channel plasmids at a concentration of 18 μg per 15 cm dish using Fugene 6, and grown for an additional 24 hours. Cells were then assayed on an electrophysiological system (IonFluxHT and/or Mercury, Fluxion Biosciences) in which dose-response relationships may be assessed through a microfluidics-based platform for establishing whole cell configurations. Ensemble plates were primed with extracellular buffer (140 mM NaCl, 5 mM KCl, 2 mM CaCl2), 1 mM MgCl2, 10 mM HEPES, and 10 mM glucose, pH 7.2 with NaOH, mOsm 310), intracellular buffer (145 mM CsCl, 2 mM CaCl2), 2 mM MgCl2, 10 mM HEPES, and 10 mM EGTA, pH 7.2 with CsOH, mOsm 305), as adapted from Lynagh and Lynch, and test compounds (stocks prepared fresh) diluted in extracellular buffer. Cells were then released from the plate with Accutase, centrifuged, resuspended in extracellular buffer, and loaded into Ensemble plates. Cells were then subjected to a standard protocol for priming, trapping, breaking, and establishing whole cell configuration, with cells held at −60 mV throughout the recording. After recording baseline, progressive doses of test compounds were applied using the IonFlux software to assess dose response relationships. Data were then analyzed off-line using custom Python scripts to convert data to .csv format, re-plot traces, and apply QC measurements to reject unstable recordings (i.e. thresholding based on access resistance and/or standard deviation in baseline, as well as artifact rejection). Peak currents were then calculated, and population data were fit using a 4-parameter logistic equation as described by the Hill Equation. Currents were measured on an automated patch clamp system (Fluxion Biosciences) following 1 second addition of drug and the EC50 values calculated are tabulated below in Table 22 below and Table 21 above (in Example 2).

rat DRG neurons = assay: Rheobase shift and evoked action potentials in rat DRG neurons (current clamp); assay type: cell-based
Outline: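 Rat DRG neurons expressing engineered receptors, whole-cell current clamp at RT. ECS at pH 7.3; K-gluconate internal at pH 7.2. 500 ms steps from −200 to 700 pA with and without ligand. Rheobase taken as the smallest depolarising step that fires an action potential; input resistance from negative steps.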

B1: CODA806: engineered chimeric LGIC receptor, Y115D, L131Q in SEQ ID NO: 33 (protein)
chain: MRCSPGGVWLALAASLLHVSLQGEFQRKLYKELVKNYNPLERPVANDSQPLTVYFSLSLLQIMDVDEKNQVLTTNIWLQMSWTDHYLQWNVSEYPGVKTVRFPDGQIWKPDILLDNSADERFDATFHTNVQVNSSGHCQYLPPGIFKSSCPMDLKNFPMDVQTCKLKFGSWSYGGWSLDLQMQEADISGYIPNGEWDLVGIPGKRSERFYECCKEPYPDVTFTVTMRRRMGYYLIQMYIPSLLIVILSWISFWINMDAAPARVGLGITTVLTMTTQSSGSRASLPKVSYVKAIDIWMAVCLLFVFSALLEYAAVNFVSRQHKELLRFRRKRRHHKSPMLNLFQEDEAGEGRFNFSAYGMGPACLQAKDGISVKGANNSNTTNPPPAPSKSPEEMRKLFIQRAKKIDKISRIGFPMAFLIFNMFYWIIYKIVRREDVHNQ
modifications: synthetic sequence of chimeric LGIC
- fold increased potency towards RG-3487 compared with wild type receptor (HEK293T cells; ligand RG-3487): over 10 fold
- fold reduced potency to acetylcholine compared with wild type receptor (HEK293T cells; ligand acetylcholine): over 500 fold
- Rheobase Shift; Rat DRG Neurons, Baseline (rat DRG neurons; Baseline, no ligand): 163 ± 28 pA
- Rheobase Shift; Rat DRG Neurons, Facinicline/RG-3487 @ EC90 (rat DRG neurons; Facinicline/RG-3487 @ EC90): 625 ± 35 pA
- effect on current injection evoked action potentials (rat DRG neurons; RG-3487 (SA-2) 3 μM, transduced rat DRG neurons): reversibly inhibits
- increase in the current required to elicit action potentials (rheobase) (rat DRG neurons; RG-3487 (SA-2) 3 μM, transduced rat DRG neurons, n=7): ~3 ×
- effect on evoked action potentials (rat DRG neurons; acetylcholine 3.0 mM, transduced rat DRG neurons, n=4): no effect
